B1: GroES^7I25D_(1,4,7) (other)
chain: MNIRPLHDRVIVKRKEVETKSAGGDVLTGSAAAKSTRGEVLAVGNGRILENGEVKPLDVKVGDIVIFNDGYGVKSEKIDNEEVLIMSESDILAIVEAMNIRPLHDRVIVKRKEVETKSAGGIVLTGSAAAKSTRGEVLAVGNGRILENGEVKPLDVKVGDIVIFNDGYGVKSEKIDNEEVLIMSESDILAIVEAMNIRPLHDRVIVKRKEVETKSAGGIVLTGSAAAKSTRGEVLAVGNGRILENGEVKPLDVKVGDIVIFNDGYGVKSEKIDNEEVLIMSESDILAIVEAMNIRPLHDRVIVKRKEVETKSAGGDVLTGSAAAKSTRGEVLAVGNGRILENGEVKPLDVKVGDIVIFNDGYGVKSEKIDNEEVLIMSESDILAIVEAMNIRPLHDRVIVKRKEVETKSAGGIVLTGSAAAKSTRGEVLAVGNGRILENGEVKPLDVKVGDIVIFNDGYGVKSEKIDNEEVLIMSESDILAIVEAMNIRPLHDRVIVKRKEVETKSAGGIVLTGSAAAKSTRGEVLAVGNGRILENGEVKPLDVKVGDIVIFNDGYGVKSEKIDNEEVLIMSESDILAIVEAMNIRPLHDRVIVKRKEVETKSAGGDVLTGSAAAKSTRGEVLAVGNGRILENGEVKPLDVKVGDIVIFNDGYGVKSEKIDNEEVLIMSESDILAIVEA
modifications: DyLight 650 NHS ester on amines (for MST)
B2: GroES^7I25D1,4 (other)
chain: B1 chain with D607I
modifications: DyLight 650 NHS ester on amines (for MST)
B3: GroES^7I25D1,2 (other)
chain: B1 chain with I122D, D316I, D607I
modifications: DyLight 650 NHS ester on amines (for MST)
B4: GroES^7I25D1,3 (other)
chain: B1 chain with I219D, D316I, D607I
modifications: DyLight 650 NHS ester on amines (for MST)
B5: GroES^7I25D1 (other)
chain: B1 chain with D316I, D607I
modifications: DyLight 650 NHS ester on amines (for MST)
B6: GroES^7 (other)
chain: B1 chain with D25I, D316I, D607I
modifications: DyLight 650 NHS ester on amines (for MST)
B7: GroES^7I25A1,3 (other)
chain: B1 chain with D25A, I219A, D316I, D607I
modifications: DyLight 650 NHS ester on amines (for MST)
B8: GroES^7I25A1,4 (other)
chain: B1 chain with D25A, D316A, D607I
modifications: DyLight 650 NHS ester on amines (for MST)
B9: GroES^7I25A1 (other)
chain: B1 chain with D25A, D316I, D607I
modifications: DyLight 650 NHS ester on amines (for MST)
B10: GroES^7I25A_(1,4,7) (other)
chain: B1 chain with D25A, D316A, D607A
modifications: DyLight 650 NHS ester on amines (for MST)
B11: GroES^7I25A1,2 (other)
chain: B1 chain with D25A, I122A, D316I, D607I
modifications: DyLight 650 NHS ester on amines (for MST)

One may read the Kd as the equilibrium constant for the complex coming apart. A low value points to a tighter complex.

Numbering of substitutions follows the chain as printed.

The first test addresses GroEL (E. coli, UniProt P0A6F5 1-548). As to the kind of experiment: MST.
In turn, B1 registered a Kd of 40 nM.

As to B2, binding was characterised by a dissociation constant (Kd) of 9.58 nM. Same read-out and setting: in the case of B3 it was 9.24 nM. For the molecule B4, binding was characterised by a dissociation constant (Kd) of 13.3 nM. Take B5: the Kd was 4.07 nM. In turn, B6 yielded a Kd of 3.05 nM.

Turning to B7, the Kd is 10 nM. Molecule B8 gave a Kd of 8.99 nM. Still for that read-out and setting: in the case of B9 it was 4.6 nM; in that of B10, 77.2 nM. Turning to B11, the affinity, expressed as Kd, was 8.97 nM.

A further test concerns the target GroEL^SR (GroEL R452A/E461A/S463A/V464A) (E. coli, UniProt P0A6F5 1-548, R452A | E461A | S463A | V464A). Briefly: MST.
B2 showed a Kd of 73.1 nM. Regarding B3, the Kd came to 38.7 nM. On the same count and under the same terms, in the case of B4 it was 71.9 nM. Regarding B5, the Kd turned out to be 25.6 nM. Same read-out and setting: in the case of B6 it was 4.54 nM; in that of B7, 39.7 nM. The same measure, in the same setting: to B8 belongs 51.3 nM. Regarding B11, the Kd came to 35 nM.

The values are drawn from PMC5575113 (2017).
